Test results: patent US9527913B2, “Humanized pan-HER antibody compositions” (Symphogen A/S, priority 2012, dated 2016)

Assays:
[1] = system: A431NS, H358, FaDu, OE19, BT474, MDA-MB-175 VII, MCF-7, N87, HN5, MFE-280 cancer cell lines; experiment: Viability assay (WST-1) of humanized variants with partner antibody and of six-antibody mixtures; type: cell-based, human; conditions: two cell lines per variant, 96 hours
Protocol: Each humanized variant was tested in two cell lines and compared to the parental mixture of two chimeric antibodies and to a negative control antibody. […] In addition, a combination of six humanized variants (11294, 11302, 11249, 11145, 10738 and 11052; Humanized Pan-HER) was tested in a number of cell lines and compared to the combination of the six chimeric antibodies (1277, 1565, 4384, 4517, 5038 and 5082; Chimeric Pan-HER). The cell lines used, N87 gastric, FaDu head and neck, A431NS epidermoid, OE19 esophageal, HN5 head and neck, MDA-MB-175 VII breast and MFE-280 endometrial cancer, were selected on the basis of their previously determined dependency on the HER family receptors.
Prior to performing the viability assay the appropriate antibodies and antibody mixtures were diluted to a final total antibody concentration of 100 μg/ml in appropriate media supplemented with 0.5-2% FBS and 1% P/S (penicillin/streptomycin), yielding a final total antibody concentration of 50 μg/ml in the well containing the highest antibody concentration. A threefold serial dilution of the antibodies was then performed in a 384-well plate, followed by addition of relevant numbers of cells to the experimental wells. The MCF-7 cells were also stimulated with 1 nM heregulin beta. The plates were incubated for 4 days in a humidified incubator at 37° C. WST-1 reagent (Roche Applied Science, Mannheim, Germany) was added to the plates and the plates were incubated for 1-3 h at 37° C. Plates were transferred to an orbital plate shaker for one h and the absorbance was measured at 450 and 620 nm (reference wavelength) using an ELISA reader. The percentage of metabolically active cells (MAC) is calculated as a percentage of the untreated control as follows: […]

[2] = system: EGFR, HER2 and HER3 from humans, cynomolgus monkeys and mice, human and murine HER4; experiment: Cross-reactivity ELISA with coated antigens; type: binding, mouse; conditions: OD at 450 nm, 40 nM antibody, compared to chimeric parent
Protocol: Antibody-antigen binding was measured by ELISA with coated antigens. Human antigens were obtained from Sino Biologicals. All other antigens were produced in-house by transient expression in CHO or HEK293 cells. Chimeric and humanized antibodies, as well as an isotype control antibody, were incubated with the coated antigens at different concentrations. After wash, bound antibodies were detected by HRP-(horse radish peroxidase)-conjugated secondary antibodies. The OD signal from 40 nM antibody, measured at 450 nm using an ELISA reader, was scored from negative (−; OD<0.1) to strongly positive (+++; OD>2.5).

human HER3 = molecular target: T1, human HER3 (Homo sapiens, UniProt P21860); experiment: Kinetic binding analysis by surface plasmon resonance (ProteOn XPR36, IgG capture); conditions: Human antigen
T1 construct: against soluble antigen under monovalent conditions; purchased Sino Biologicals
Protocol: (§1) Kinetic binding analysis of the purified humanized variants was performed on a ProteOn™ XPR36 biosensor (BioRad, USA) employing an IgG capture assay as described by Canziani et al. (Anal. Biochem. (2004) 325:301-307) that allows for measurement of antibody affinities of whole IgG molecules against soluble antigen under monovalent conditions. Briefly, approximately 5000 resonance units (RU) of a monoclonal mouse anti-human IgG Fc antibody (GE Healthcare, Denmark) was conjugated to a GLC chip surface (BioRad, USA) according to the manufacturer's instructions, followed by capture of individual antibodies of the invention or a negative control on the anti-Fc sensor surface. […] Next, 250 μl monovalent antigen (Sino Biologicals) was injected at a flow rate of 50 μl/min in serial threefold dilutions from 100 nM stock to generate response curves. The chip surface was regenerated between cycles by stripping the captured antibody/antigen complexes off the surface with a 10-second injection of 3 M MgCl2 (GE Healthcare, Denmark) repeated three times. Finally, binding responses were fitted to a Langmuir 1:1 binding model for calculation of the on-rate (kon or ka), off-rate (koff or kd) and affinity (KD) constants using double referencing.

cynomolgus HER3 = experiment: as above; conditions: Cynomolgus antigen
Protocol: as §1

[3] = system: human or cynomolgus antigen (EGFR, HER2 or HER3); experiment: Off-rate ranking of library hits (Octet QK384, Protein G biosensors); type: binding; conditions: expression supernatant, antigen at 200 nM, dissociation 20 min
Protocol: Approximately 100 hits from each library that yielded an OD signal similar to or higher than that of the chimeric parent antibody were subjected to off-rate ranking using an Octet® QK384 instrument (Fortebio, Menlo Park, Calif.). Protein G biosensors (Fortebio) were used for capturing of antibody from 40 μl of expression supernatant followed by incubation with human or cynomolgus antigen at 200 nM. Human antigens were obtained from Sino Biologicals and cynomolgus antigens were produced in-house by transient expression in CHO or HEK293 cells (Koefoed et al. (2011) mAbs, 3:6, 1-12). Subsequently, the biosensors were incubated in PBS and the dissociation of antigen was recorded for 20 min to allow for a reliable determination of the dissociation rates. The responses were globally fitted to a Langmuir 1:1 binding model for calculation of dissociation constants.

B1: antibody 11006: humanized anti-HER3 antibody from chimeric parent 5082; HC SEQ ID NO: 58, LC SEQ ID NO: 59 (antibody, V domains shown)
VH: QVQLQESGPGLVKPSQTLSLTCTVSGYSITSAYYWNWIRQHPGKGVEWMGYIGYSGRNTYNPSLKNRVTISRDTSKNQFSLKLSSVTAADTAVYYCSREGDYGYSDYWGQGTLVTVSS
VL: DIQMTQSPSSLSASVGDRVTVTCRASQDTNNYLNWYQQKPGKAVKLLIYYTSRLQSGVPSRFSGSGSGTDFTLTISSLQPEDFATYFCQQSETLPWTFGQGTKVEIK
- anti-proliferative effect in combination with partner antibody, compared to mixture of the two chimeric parent antibodies [1]: highly similar anti-proliferative effects
- cross-reactivity pattern with HER family antigens [2]: binding to the same human and cynomolgus antigen combined with lack of binding to the mouse antigen or to other EGFR family receptors
- ka (human HER3): 740000 M⁻¹ s⁻¹
- kd (human HER3): <2e-06 s⁻¹
- KD (estimated) (human HER3; KD could not be determined due to a very slow off-rate): *KD could not be determined due to a very slow off-rate. Estimated to be in the picomolar range.
- ka (cynomolgus HER3): 1.5e+06 M⁻¹ s⁻¹
- kd (cynomolgus HER3): 8.7e-05 s⁻¹
- dissociation rate (off-rate ranking) compared to parent antibody [3]: improved dissociation rate
